The test addresses T1, Polyhistidine (His) tagged ERα ligand binding domain (amino acids 302–552) (UniProt P03372 302-552).
T1 construct: Detected on the array by a penta-His Alexa Fluor 488 antibody; Always tested with E2, DES or solvent (2% DMSO); also called ERα-LBD; source: partly purified from Escherichia coli (Qiagen)
T1 sequence (looked up): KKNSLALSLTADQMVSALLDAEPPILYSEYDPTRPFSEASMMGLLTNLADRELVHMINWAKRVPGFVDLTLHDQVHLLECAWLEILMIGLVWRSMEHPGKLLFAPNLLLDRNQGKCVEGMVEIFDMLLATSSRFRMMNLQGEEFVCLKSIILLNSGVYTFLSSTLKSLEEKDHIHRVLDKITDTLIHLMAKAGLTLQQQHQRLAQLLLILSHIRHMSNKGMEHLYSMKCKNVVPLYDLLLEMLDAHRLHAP
The test is described as follows: peptide or protein array; MARCoNI, PamChip peptide microarray: coregulator motif peptides immobilised; His-ERα-LBD 10 nM (partly purified) in solution with E2 (10^-12 to 10^-5 M), detected with penta-His Alexa Fluor 488 antibody 25 nM; 20 °C; 20 mM Tris-HCl pH 7.5, 500 mM NaCl, 0.2% BSA, 0.05% Tween 20, 2% DMSO. The note with it: both partners purified.

B1: TRRAP_3535_3557_C3535S/C3555S (peptide, UniProt Q9Y4A5 3535-3557, looked up)
peptide: SLTESRREERVLQLLRLLNPSLE
notes: Immobilised on the PamChip; also called TRRAP_3535_3557_C3535S/C3535S; source: bought: PamChip peptide microarray, PamGene International BV
Consider B1, for which the binding result is given as “binds”.

(Values after publication PMC7505815, “Estrogen receptor alpha (ERα)–mediated coregulator binding and gene expression discriminates the toxic ERα agonist diethylstilbestrol (DES) from the endogenous ERα agonist 17β-estradiol (E2)” (Cell Biology and Toxicology, 2020).)
